Measured values: the DeepSol protein solubility set

Test: soluble on expression in E. coli; label from the status in PepcDB or PDB records

| Sequence | soluble on expression in E. coli |
| --- | --- |
| QVPENNGYAGDKPLKTYIHDTVKGDLYYTAGSSYYSGKAYPGDTYKVNHNFDLPEGATIKLARLYNYWTWSSEGMEGRNPEMKLSFDGQELEPDREYSDRKGWGSYDYPSGTWAYDVSSCITGSGTFTTEIENTGPDASCVCIEGVGLLIVYEDPDGRNIEYWINEGADELNSQMDENGSPLYYTAPNQTICEMLRPALQFPIRSATLWTITQSGNWENNTLIVNDKKFTGICDGKPYPDLEIDKRNVTDCLKAGENIILFQASGDYVISSGSFLVVEKDLLAEESKSSTEEASEKSEETGSTPETSGTESKKAPGFGFVFAPALLTGRKLVSGLRDK | not soluble |
| QVQLVESGGGSVQAGGSLRLSCAASGFTYSRKYMGWFRQAPGKEREGVAAIFIDNGNTIYADSVQGRFTISQDNAKNTVYLQMNSLKPEDTAMYYCAASSRWMDYSALTAKAYNSWGQGTQVTVSSRGRHHHHHH | soluble |
| QVSLRESGGGLVQPGRSLRLSCTASGFTFRHHGMTWVRQAPGKGLEWVASLSGSGTKTHFADSVKGRFTISRDNSNNTLYLQMDNVRDEDTAIYYCAKAKRVGATGYFDLWGRGTLVTVSSASTKGPSVFPLAPSSKSTSGGTAALGCLVKDYFPEPVTVSWNSGALTSGVHTFPAVLQSSGLYSLSSVVTVPSSSLGTQTYICNVNHKPSNTKVDKKAEP | soluble |
| QYYDYDFPLSIYGQSSPNCAPECNCPESYPSAMYCDELKLKSVPMVPPGIKYLYLRNNQIDHIDEKAFENVTDLQWLILDHNLLENSKIKGRVFSKLKQLKKLHINHNNLTESVGPLPKSLEDLQLTHNKITKLGSFEGLVNLTFIHLQHNRLKEDAVSAAFKGLKSLEYLDLSFNQIARLPSGLPVSLLTLYLDNNKISNIPDEYFKRFNALQYLRLSHNELADSGIPGNSFNVSSLVELDLSYNKLKNIPTVNENLENYYLEVNQLEKFDIKSFCKILGPLSYSKIKHLRLDGNRISETSLPPDMYECLRVANEVTLN | not soluble |
| RADLQYLLNHPDPTEYKEKPLPYPFLTHWLHDIQEQTISKRLDESAGSAGEVSFIFVPCYLNRKDGIFGLGYYDLLIGMDLTVFPSYYEPWGYTPLES | not soluble |
| RAIGQIRSADGGRTVDVDLAQPLHDWRVLFNNLLPSHVLRGGDSDFSTVLADGIPASAGRYSFAGVDRQRGIVTLNRNDRFWGEKPATVENIKFREVTDIAQGRELLRTGQIKFLDITPTEVAREAFELMPNTQVRTTTTSLNLQLIANTHLTLEQRADLQSLIDVHTVARIAMGRSTDLGVGDQPYEPHADHLMSLGRPVRIGVDPSDPEAQMAARVLSDVLARKSVKTQLVETDTTDLIGSK | not soluble |
| RDRSTIARIQFRLPDGSSFTNQFPSDAPLEEARQFAAQTVGNTYGNFSLATMFPRREFTREDYKRRLLDLELAPSASVVLLPAGRPATSIVHSSSGDILMID | soluble |
| REHDFDDLKFEHFLASAAGAFPAFLEVAEKRIIGEGVLRAVKESMRWHRAENVHFGAFLLLVPLISSWDAGGMVDIAEAARNRLRRTDFRDSLSVLEAFRLSNARVVEAGELNLKDRKTEEEIAQKKINLYEWMKMAPEENLIARELVDGFKISIEGAKFLLSFGNSGKAVVELYYHLLSKFPDPLVIAKMGREYAEKITEWAEKARTEEERKELDEKLLKDGANPGTIADLTASSIFLALAEGWR | soluble |
| RGFAKIRDERARRDKIHNLIKRKLDPTKRFSSKQQRQLDRLTRESNLKPSELKETIREEVVEELAGAADGDDVDAVIDEAAGITTTYEPIEFEDTTVSVEDTSLGLPSHARPMSELEDLTTFEEDIAEEAATNTPADKPAAKH | not soluble |
| RGSGWFAGFPVYSWFFGRDGLWMALAANMVGLAGLTYEHTNMLLKYSDDGRIPHEIGLADDGDQGYTIGETKFNTMYMSIDSSPLWLLASASMENWDRSRFEERHLKKVFDFIASCDTDGDGLIENDFRRGLIGWPETWANIRNGKTVDVNALWIEVLRIFGYRFGYDEYQKIRDRYMSTFFAGANSVDFVDMEYHEIRSAMQFVPGIFMRNEAIRSRIKDLSAGMMTPWGIRSMSVYDPMYDGGYHTGTVWPLMTGWFVIAAYKNGLPDLAFNQMRTFVDLAFSADDPGRINETYDAMMPQPTGQFAQGWSSSMLLLSVLQGMLNIDPLS | not soluble |
| RIGIVVAAHGNSTASSMVQVVSQLLNVDNLKAVDMPLDMPPKEALRKIVEAVGEVNEENGVLLLVDMGSLSTFSEEIVRQTGIDVRTVDMVTTPIVLEAARKTALIDTQLETLHESLKNFHGYADIRQSETKQ | soluble |
| RILDIDPVAQTAVVEPGVVCDALRDAAAEFGLTYGPDPSTHSRCTIGGMVANNACGSHSVAFGTAAENLVDVTLMLSDGREVTVTKDGCDDAEINQKLTDLASKNQDLISKELGRFPRQVSGYGLHYLAHDMAKAMAGTEGTIGIITRLTVKLVPTP | not soluble |
| RIPVVGITGSKGMTTIARFVASLLTLSGRRTGLACSSGLYLDHRKIDHGNCANHKSARRILMNRTVEAAVFENGFDTMLEEGLPYDSCQVGIVTRIEPALHFAHQWIDTSEQVFKVLRTQVDVVSPTGGKREGDILPEIILPTGAAILNAQDPMLVQMADLCQGEVIYISCDPTLPVISVHRQEGTGPTRGKRAVTVRNWEILLIDGTAETILIRLDELQAKTGNHPVETAHLLAGVGAGWALGMSPDLIRTGLITFLQHQEKQSIVYQTF | not soluble |
| RIQKLREATDKVASGDYDIHLENSYGDEIGVLASDFNIMAKKLKQSRDEIERLEKRRRQFIADVSHELKTPLTTINGLVEGLNSHTIPEDKKDKCFSLISEETKRMLRLVKENLDYEKIRSQQITLNKLDVPLIEVFEIVKEHLQQQAEEKQNKLMIQVEDHVIVHADYDRFIQILVNITKNSIQFTQNGDIWLRGMEGYKETIIEIEDTGIGIPKEDIEHIWERFYKADISRTNTAYGEYGLGLSIVRQLVEMHQGTVEIKSE | not soluble |
| RKEDHARLRALNGLLYKALTDLLCTPEVSQELYDLNVELSKVSLTPDFSACRAYWKTTLSAEQNAHMEAVLQRSAAHMRHLLMSQQTLRNVPPIVFVQDKGNAALAELDQLLAVAD | soluble |
| RLVDESALEEFLTREIGPAETFDVARHEQGHSNETLFVTWGDRELVVRRPPPGQTAETAHDVLREYRVIDALQDTAVPVPPTVTACDDQTIIGSDFYVMARVEGTVIRDDEPARFGSDDARAAVGTELVDTLAAIHEVDPTAVGLSDLGRADGYAKRQVARWGKQLAWAFERTAESRTIPELERVGSWLQDECPDDHPKTLVHGDYKLDNVMFGPGDDPELAAVFDWEMATLGDPRADLGWLLSYWRD | not soluble |
| RRAELNTNETDESEKVIEGYFAVFNSETELFPGAFEEILPGAFDNTLENDVRALINHDTALVLGRNVSKTLSLRVDDKGLWGQIKINPLDSDAINLYERVKRGDVSQCSFGFNIIKEQEEWRDDGSVKWSLEEVELHEVSVCTFPAY | not soluble |
| RRVADEIVISHPELADEVDTVCNKIQAGKPMPESLRELVVRTGLEELMGLVSMLSHASRIGGSLVNSLREYTEDYRDKRQQAAEEIAAKIPVK | not soluble |
| RSAFSKIESEEYNSLKSSTIQTIGTSDGGSGIGYIESGDYLVFNKINFGNGANSFKARVASGADTPTNIQLRLGSPTGTLIGTLTVASTGGWNNYEEKSCSITNTTGQHDLYLVFSGPVNIDYFIFDSNGVNP | soluble |
| RSEYVAPRSVWEARLAQVWEQVLNVPQVGALDDFFALGGHSLRAMRVLSSMHNEYQVDIPLRILFEKPTIQELAAFIEETAKGNVFSIEPVQKQAYYPVSSAQKRMYILDQFEGVGISYNMPSTMLIEGKLERTRVEAAFQRLIARHESLRTSFAVVNGEPVQNIHEDVPFALAYSEVTEEEARELVSSLVQPFDLEVAPLIRVSLLKIGEDRYVLFTDMHHSISDGVSSGILLAEWVQLYQGDVLPELRIQYKDFAVWQQEFSQSAAFHKQEAYWLQTFADDIPVLNLPTDFTRPSTQSFAGDQCTIGAGKALTEGLHQLAQATGTTLYMVLLAAYNVLLAKYAGQEDIIVGTPITGRSHADLEPIVGMFVNTLAMRNKPQREKTFSEFLQEVKQNALDAYGHQDYPFEELVEKLAIARDLSRNPLFDTVFTFQNSTEEVMTLPECTLAPFMTDETGQHAKFDLTFSATEEREEMTIGVEYSTSLFTRETMERFSRHFLTIAASIVQNPHIRLGEIDML | soluble |
| RSIRLPETIDLGALYLSMKDTEKGIKELNLEKDKKIFNHCFTGNCVIDWLVSNQSVRNRQEGLMIASSLLNEGYLQPAGDMSKSAVDGTAENPFLDNPDAFYYFPDSGFFCEEN | soluble |
| RTDTIMVLHMPRTGEPTLLSIPRDSYVNVPGWGMDKANAAFTVGGPELLTQTVEEATGLRIDHYAEIGMGGLANMVDAVGGVEMCPAEPMYDPLANLDIQAGCQEFDGAAALGYVRTRATALGDLDRVVRQREFFSALLSTATS | not soluble |
| RTVTLTRERIRLEDRAVKMSVKTVGKEKVGVLDIPGFYVGLTDDVKVQLQKLEKQNVSSVIIDLRSNGGGALTEAVSLSGLFIPSGPIVQVRDNNGKVREDSDTDGQVFYKGPLVVLVDRFSASASEIFAAAMQDYGRALVVGEPTFGKGTVQQYRSLNRIYDQMLRPEWPALGSVQYTIQKFYRVNGGSTQRKGVTPDIIMPTGNEETETGEKFEDNALPWDSIDAATYVKSGDLTAFEPELLKEHNARIAKDPEFQNIMKDIARFNAMKDKRNIVSLNYAVREKENNEDDATRLARLNERFKREGKPELKKLDDLPKDYQEPDPYLDETVNIALDLAKLEKARPAEQPA | not soluble |
| RVLQELHESEAQNRALLNAIPDMMLHVCREGTILDFRAGNGCAYAAFGGNLRGRTIADLLPPGAAAQFMAQVGHALATGTMMVCEYELEGPGGLNTHEARIVANGTGTVLAIVRDVT | not soluble |
| RVQLLESGAELMKPGASVQISCKATGYTFSEYWIEWVKERPGHGLEWIGEILPGSGRTNYREKFKGKATFTADTSSNTAYMQLSSLTSEDSAVYYCTRGYSSMDYWGQGTSVTVSAAKTTPPSVYPLAPGCGDTTGSSVTLGCLVKGYFPESVTVTWNSGSLSSSVHTFPALLQSGLYTMSSSVTVPSSTWPSQTVTCSVAHPASSTTVDKKLEPSGPI | soluble |
| RVVTQNEIDRTIPVGAIMMWAADSLPSDAWRFCHGGTVSASDCPLYASRIGTRYGGSSSNPGLPDMRGLFVRGSGRGSHLTNPNVNGNDQFGKPRLGVGCTGGYVGEVQKQQMSYHKHAGGFGEYDDSGAFGNTRRSNFVGTRKGLDWDNRSYFTNDGYEIDPASQRNSRYTLNRPELIGNETRPWNISLNYIIKVKE | soluble |
| SAAGVPCALVTSCSSVFSGDQLVQHILGTEDLIVEVTSNDAVRFYPWTIDNKYYSADINLCVVPNKFLVTAEIAESVQAFVVYFDSTQKSGLDSVSSWLPLAKAWLPEVMILVCDRVSEDGINRQKAQEWCIKHGFELVELSPEELPEEDDDFPESTGVKRIVQALNANVWSNVVMKNDRNQGFSLLNSLTGTNHSIGSADPCHPEQPHLPAADSTESLSDHRGGASNTTDAQVDSIVDPMLDLDIQELASLTTGGGDVENFERLFSKLKEMKDKAATLPHEQRKVHAEKVAKAFWMAIGGDRDEIEGLSSDEEH | soluble |
| SAAPSEVAAIAPGEGDGGGGGFGSWLDGRLEALGVDRAVYGAYILGILQEEEEEEKLDALQGILSAFLEEDSLLNICKEIVERWSETQNVVTKVKKEDEVQAIATLIEKQAQIVVKPRMVSEEEKQRKAALLAQYADVTDEEESLTEADEKDDSGATTMNIGSDKLLFRNTNVEDVLNARKLERDSLRDESQRKKEQDKLQRERDKLAKQERKEKEKKRTQRGERKR | soluble |
